Measurements taken from the DeepSol protein solubility set.

Test: soluble on expression in E. coli; label from the status in PepcDB or PDB records

| Sequence | soluble on expression in E. coli |
| --- | --- |
| MKKERVDVLAFNQGLFETREKAKRSVMAGLVYNDKNERLDKPGEKISVETPLHTKGQVMPYVSRGGLKLEKALNVFAINVQGKTMLDIGSSTGGFTDVALQNGARLSYALDVGYNQLAWKIRQDERVVVMERTNFRYSKPEDFTEGVPDIATIDVSFISLRLILPPLHDILKKGGSVVALIKPQFEAGKEFVGKKGIVRDPETHQMVVEEITRFAMNNGYDVKNLDFSPITGGEGNIEFLAHLVSVEGEGSYQAPESIEEVVAHAHQKLAE | not soluble |
| MSNTHEVRPGQSIELLKALHILTRDGKMNQDSRRKLKQVYHLYQFIEPLLQNARNARGAVTLVDHGAGKSYLGFILYDLFFKDRRDASHIYGIETRAELVQSATELAARLGFGGMSFLNLSVADSIASEQLPPRVDIVTALHACNTATDDAIRFALAKQAQSIVLVPCCQAEVAAVLRKNKARALADPMAELWRHPLHTREFGSQLTNVLRCLQLEAHGYQLSVTELVGWEHSMKNELIIARHQPGRPRREPARRLREMLERIGLQELSERFQVPAQP | not soluble |
| MNTDEYYMRLAMEEAKKAEQIGEVPIGAVIVQDGRVIARAHNLRETEQRAIAHAEILAIDEACRATGSWRLERATLYVTLEPCAMCAGAIVLSRIERVVFGAFDPKGGCAGTLMNLLQESRFNHQVKVVSGVLADECGSLLSQFFRRLREQKRNVGGSANENSVD | not soluble |
| MGSDKIHHHHHHMQILFFMKIIRDPIHGYIEVEDFVLQIISTEIFQRLRHITQTGLAYLVYPGMRHTRFEHSLGVMHLAKELTRYIKINSEQYTDLDFINEEYLKLVGLSGLLHDIGHLPFSHTFENALSLAKEVYGIDVEYYGKKTHVIFGNRVIDYYLGNYLDKLSKNYDVVNFVQRVISSTPRTKEESLASLIISSPLDADRGDYLLRDSYFAGVGYGNFDIERIKRSLIYVNGKLAVLKKAIPVVEQFLLARMYMYETIYFHSVVGLYNAVLSHAVVKLIQKNLIPNVAPENYLKLNDVVIMSKLNEAGREFFDAIVYRKGFKRYKKDLTGNCYETLEKKRKEINEIMRENNGLILYHDFYDVPYSEDEIFVYDDDELKPLSTESKIVSSLTIIKKGIVGYHESAEDKMKKIYEILQECPL | not soluble |
| MAPPKDPPVLRNLQATADLLDALQNDPSLLNDEEFIKRLSILRQKHEETTNFLAKKLGAPPLPTMMTSSEITQHRSSYKVTKSSSCHFQDEASPSDYQMPRHLDLKPRSSEVRVPVRAAPEPPREQSWSQTEYATLAHNQSHEALYEDPRHQVHATSSHQNPRHQSSRHHNIESTAPSQVSVTSSVQSVAALSGQNPRQQVHATPSHQIPRHQSSRTHQNSRQQVPSATSSTLQNPRHRTSSASRHHSTRNATSATVRQILANASTRHLSSAPHIATSVAMPSGLLLSSSNTKHVASSKSENPQFATSSHVVEESFLEDGMSTTREVPTIRDEVVAGDLKLSKNRSKSMHQLSKYTPQVTVPKPFQLSLRKSTGNTYAKKFMSGLITEKQKLEEDAKKALENTKFRAKPVPKSTYQPTNTFATEQKYVEAMRKKVAAKARRKFEVQNEMVRSKSEGNLASIKPLGYVPPSTYISPIPVKPNARSRSATMRATILIQEATTPKGIKSHRAQSNLTHHLRHGRCTMDASAVSLHRRTSPPDFEKIHAKITDNFRNTNSKPSTVPIPFKFASRSKSATSRHGNCQEQAPKPFKKSTENLPKTSKNRVPSTHATQLREELNRAKIELKKSEKSGKNGNFWAEDNKQRISSFLGARSKTEEDIAMRTKQKLQQQQETTQEYMRQLAEMKQRVLNGPLIMEKQTALAQEHRLKRKFEERMKSAKGRGIERVQSQEKQQSIGRRSSEVSGSGTFVVDKGYEESFESEDKSEKSGSSTPSESGSGSESENESRSSRSSKPKSSKSTSSKSSSSRSTSSSSEA | not soluble |
| MGSDKIHHHHHHMSLPLRSIHYFVEVARCESFSLAAERLHVSQSAVSHQVALLEGYLGDDLFVRRGRKILLTAVGENYFNEVAGAINAIEGATANVRQYDTRQVKLAVHGSLAVKWLIPALDEFRQRYPNVELTLQMLTQDGNFDTQWADCFITTQPPGMGYQRYHLYDETLKPYCSKALWAEAHRLESAGDLIQYPLLSAISAFASGEPGTDWQRWFKKANLRLPVSARVHHFSHLLLAAEAAKYGQGIALLNEFMTTEQEREESLFELPFHSIQTDDSFYFVYPSSTAKSPGLESLGDWLVALCRTRH | not soluble |
| MGSDKIHHHHHHMRSPVPRVAAIHDLSGFGRTSLTVAIPVLSAMGIQVCPMPTAMLSTHTSGFKGFSFIDLTAEMRRFFDHWKSLNIRFDAIYSGFLGSPDQVAIVAQCIDMFRTPDGFAVVDPVLGDNGELEPTMDMEMVHRMRWLVSKADIITPNFTEAALLLDEPYREHIDQPTLKDWLRRLTAMGPHVAVVTSVPVEGSRTTTSVVAYNRPHDRFWKVDCQYIPAHYPGTGDTFASVLTGSILQGDSLPIAIERAVQFVTMGIRATFGHNSPSREGILLERVLDTLRAPVTMSSYELLEE | not soluble |
| MNIQEKFKAIRKQRKLSLRDLANVAGSTSSISDFEKGKTNLSNDVLLQLLGFMVVEINEIFEWSAFQDAEFLELMTQVENALQTQDITVLIQKRETLQEFFVAKNHYIYHIISLVLDVIISKLQEKEPTPEIISELTDYFFSLDYWTNLDVGLLGNIVHHFTTETLVLFTDSILKNTPNQLRNNLDRIKIDTVINCLSVLLARREKNASQELLQLLSRKQFPTYFTYEKLCISEFKAIYMYIWCDKEEADNIHQTILKTVSLLFTKDEANKWDDYFKEIISSADIKK | not soluble |
| MGSDKIHHHHHHMTFNVPDVKPLINDEFAGEAPKRALSYIANKRSAGMPVAGTYCGYAPMEVIRAVGAVPAVLCAFANKTIPAAEAVLPANLCPLIKSSYGFILTDTCPFFALSDAVVAETTCDGKKKMFELIFSHRPMFVMDLPQLPDEVEARANWATMISKLKGFLENTFGTFGTSEGIEAEIQATNIKNRLMRRVFGYAEKKPPLLSWSELYELCFLAQVATTEDLLPVFKEVFERLEEREAKGIYYGAPSSPRVLVTGCPVGGDSTKVFRIIEEAGGVVVAMDSCSGMKPFIADIEEKTGNPIDSVARHYLEIPCSCMTPNTRRLTELDKALAAFQPDAVVEVVLHACHSYNIEAIKIMNYLKEKHNLPYLKIVTDYSEGDVEQIRTRVEALLESI | not soluble |
| MSLTAPLRAGQMNFYDEPYNPVLNLHIQPSVKDENQRSTWPIIDTSNTSTQIARAHFEKHPPNNLRKSNFFHFVIALYDRNSQPIEVERTQFAGFVEKEKEVDGQDTRNGIHYRLSLMFQNGIRSEHDLFVRLIDSSTKQAITYEGQDKNPEMCRVLLTHEVMCSRCCEKKSCGNRNETPSDPVIIDRFFLKFFLKCNQNCLKNAGNPRDMRRFQVVLCSSARIDGPLLAVSDNMFVHNNSKHGRRTKRTDASDDSEYSESAELPSSVPVIKALFPSEGWIQGGTQVVLIGENFFEGLQVAFGTASPNWGESVQLISPHAIRVTTPPKHSAGPVDVTLQYKSKTYSRGTPLRFSYITLAEPGIEYGFQRLQKLLPKYPGDPERLPKDQILKRAAELAEALYNRTSTESLSSYYHTQFDATSDYAARTHTSPRSTLPYGAGPPALSSAVYQTSYPTVNATPAANFLNTQTGFATFGAVNPFAATLQSSSRLS | not soluble |
| MTTPKTFVPELLSPAGSLKNMRYAFAYGADAVYAGQPRYSLRVRNNEFNHENLQIGINEAHALGKKFYVVCNIQPHNSKLKTFIRDLKPVIDMGPDALIMSDPGLIMMVREEFPHMPIHLSVQANAVNWATVKFWASQGVERVIVSRELSLEEIEEIREKCPNTEIEVFVHGALCMAYSGRCLLSGYINKRDPNQGTCTNACRWEYKVEAAKEDEAGQIVEQFDPNAAQAIEVQNERPDTTIGAGKPIDDVVLLSESHRPDEKMAAFEDEHGTYIMNSKDLRAVQHVERLTQMGVHSLKIEGRTKSFYYCARTAQVYRKAIDDAVAGKPFDDSLMTTLESLAHRGYTEGFLRRHTHDAYQNYDYGYSVSDTQQFVGEFTGKRRGAMAEVEVKNKFVLGDSLELMTPKGNVIFTLEAMENRKGEATDDAKGNGHFVYIPVPEELDLSYALLMRNLVQGQDTRNPTGK | not soluble |
